In paper PMC7949130:

Experiments:
[1] = biological target: sulfated human cationic trypsin purified from the conditioned medium of transfected HEK 293T cells (human); test: equilibrium binding assay (free trypsin activity on a fluorogenic substrate); fixed trypsin incubated with increasing SPINK1, 0.2 ml, 0.1 M Tris-HCl (pH 8.0), 150 mM NaCl, 1 mM CaCl2, 0.05% Tween 20, 15 h; free trypsin measured with Z-Gly-Pro-Arg-AMC; apparent KD, global fit of at least three experiments
[2] = biological target: nonsulfated human cationic trypsin purified from E. coli (human); test: as above
[3] = biological target: nonsulfated human cationic trypsin purified from the conditioned medium of transfected HEK 293T cells (human); test: as above
[4] = biological target: native sulfated human cationic trypsin purified from pancreatic juice (human); test: as above
[5] = biological target: nonsulfated human cationic trypsin purified from E. coli (human); test: discontinuous association rate assay (residual trypsin activity); 50 pM trypsin mixed with 500 pM SPINK1, 0.1 M Tris-HCl (pH 8.0), 150 mM NaCl, 1 mM CaCl2, 0.05% Tween 20, 23 °C; kon from the pseudo-first-order rate constant divided by the inhibitor concentration
[6] = biological target: native sulfated human cationic trypsin purified from pancreatic juice (human); test: as above
[7] = biological target: nonsulfated human cationic trypsin purified from E. coli (human); test: dissociation rate assay (recovery of trypsin activity after dilution of the complex); complex of 11 nM SPINK1 and 10 nM trypsin formed for 1 h at 23 °C, diluted to 50-200 pM with 0.6 mM Z-Gly-Pro-Arg-AMC, 0.1 M Tris-HCl (pH 8.0), 150 mM NaCl, 1 mM CaCl2, 0.05% Tween 20, room temperature, followed for 1 h
[8] = biological target: native sulfated human cationic trypsin purified from pancreatic juice (human); test: as above
[9] = biological target: native sulfated human cationic trypsin purified from pancreatic juice (human); test: equilibrium binding assay (free trypsin activity on a fluorogenic substrate); fixed trypsin incubated with increasing SPINK1, 0.2 ml, 0.1 M Tris-HCl (pH 8.0), 150 mM NaCl, 1 mM CaCl2, 0.05% Tween 20, 15 h; free trypsin measured with Z-Gly-Pro-Arg-AMC; apparent KD, global fit of at least three experiments; remark: listed apart in the source
[10] = biological target: nonsulfated human cationic trypsin purified from E. coli (human); test: KD calculated from the rate constants (association and dissociation rate assays); KD(calc): equilibrium dissociation constant calculated from kon and koff of the activity-based rate assays
[11] = biological target: native sulfated human cationic trypsin purified from pancreatic juice (human); test: as above
[12] = biological target: nonsulfated human cationic trypsin purified from E. coli (human); test: equilibrium binding assay (free trypsin activity on a fluorogenic substrate); fixed trypsin incubated with increasing SPINK1, 0.2 ml, 0.1 M Tris-HCl (pH 8.0), 150 mM NaCl, 1 mM CaCl2, 0.05% Tween 20, 15 h; free trypsin measured with Z-Gly-Pro-Arg-AMC; apparent KD, global fit of at least three experiments; remark: listed apart in the source
[13] = biological target: native sulfated human cationic trypsin purified from pancreatic juice (human); test: equilibrium binding assay (free trypsin activity on a fluorogenic substrate); as the equilibrium assay but K41N SPINK1 incubated with trypsin for 1 h; 0.1 M Tris-HCl (pH 8.0), 150 mM NaCl, 1 mM CaCl2, 0.05% Tween 20; apparent KD

B1: serine protease inhibitor Kazal type 1 (SPINK1), wildtype, C-terminal 10His tag (natural protein)
chain: DSLGREAKCYNELNGCTKIYDPVCGTDGNTYPNECVLCFENRKRQTSILIQKSGPC
[1]
  Kd: 0.0402 nM
[2]
  Kd: 0.0011 nM
[3]
  Kd: 0.0044 nM
[4]
  Kd: 0.0622 nM
[5]
  kon: 3e+06 M⁻¹ s⁻¹
[6]
  kon: 3.5e+06 M⁻¹ s⁻¹
[7]
  koff: 8.2e-06 s⁻¹
[8]
  koff: 5.48e-05 s⁻¹
[9]
  Kd: 0.0674 nM
[10]
  Kd: 0.0027 nM
[11]
  Kd: 0.0158 nM

B2: SPINK1 variant N34S, C-terminal 10His tag (natural protein)
chain: DSLGREAKCYSELNGCTKIYDPVCGTDGNTYPNECVLCFENRKRQTSILIQKSGPC
[1]
  Kd: 0.0375 nM
[2]
  Kd: 0.0015 nM
[3]
  Kd: 0.0047 nM
[4]
  Kd: 0.0323 nM
[5]
  kon: 5.3e+06 M⁻¹ s⁻¹
[6]
  kon: 2.7e+06 M⁻¹ s⁻¹
[7]
  koff: 7e-06 s⁻¹
[8]
  koff: 4.5e-05 s⁻¹
[10]
  Kd: 0.0013 nM
[11]
  Kd: 0.0164 nM

B3: SPINK1 mutant Y43A (natural protein)
chain: DSLGREAKCYNELNGCTKIADPVCGTDGNTYPNECVLCFENRKRQTSILIQKSGPC
[12]
  Kd: 0.0203 nM
[9]
  Kd: 0.0622 nM

B4: SPINK1 mutant Y43R (natural protein)
chain: DSLGREAKCYNELNGCTKIRDPVCGTDGNTYPNECVLCFENRKRQTSILIQKSGPC
[12]
  Kd: 0.104 nM
[9]
  Kd: 0.0271 nM

B5: SPINK1 variant N37S, C-terminal 10His tag (natural protein)
chain: DSLGREAKCYNELSGCTKIYDPVCGTDGNTYPNECVLCFENRKRQTSILIQKSGPC
[4]
  Kd: 0.0869 nM

B6: SPINK1 variant I42M, C-terminal 10His tag (natural protein)
chain: DSLGREAKCYNELNGCTKMYDPVCGTDGNTYPNECVLCFENRKRQTSILIQKSGPC
[4]
  Kd: 0.2 nM

B7: SPINK1 variant P55S, C-terminal 10His tag (natural protein)
chain: DSLGREAKCYNELNGCTKIYDPVCGTDGNTYSNECVLCFENRKRQTSILIQKSGPC
[4]
  Kd: 0.101 nM

B8: SPINK1 variant R65Q, C-terminal 10His tag (natural protein)
chain: DSLGREAKCYNELNGCTKIYDPVCGTDGNTYPNECVLCFENQKRQTSILIQKSGPC
[4]
  Kd: 0.0592 nM

B9: SPINK1 variant Q68R, C-terminal 10His tag (natural protein)
chain: DSLGREAKCYNELNGCTKIYDPVCGTDGNTYPNECVLCFENRKRRTSILIQKSGPC
[4]
  Kd: 0.068 nM

B10: SPINK1 variant K41N, C-terminal 10His tag (natural protein)
chain: DSLGREAKCYNELNGCTNIYDPVCGTDGNTYPNECVLCFENRKRQTSILIQKSGPC
[13]
  Kd: 1290 nM
